We go through three substances from paper PMC6447637.

Assay [1] deals with NaV1.4 CTerm Short (residues 1599–1754), freed of CaM for ITC (human) (UniProt P35499). Kind of assay: ITC; Ca2+-saturating: CTerm (2–25 µM) in the sample cell, CaM, CaM12 or CaM34 (30–1000 µM) as titrant; 20 mM MOPS, 150 mM NaCl, 1 mM MgCl2, 50 µM EGTA with 1 mM CaCl2; VP-ITC, single binding site fit, one replicate.
The target of assay [2] is NaV1.4 CTerm Long (residues 1599–1764), freed of CaM for ITC (human) (UniProt P35499). The description is as above.
The target of assay [3] is NaV1.5 CTerm Long (not stated (human or rat cDNA cloned)). Described as above.
For assay [4] the target is unchanged. Described as above. The source holds these as a separate data set.
The target is the same in assay [5]. In words: ITC; Ca2+-free: CTerm (2–25 µM) in the sample cell, CaM (30–1000 µM) as titrant; 20 mM MOPS, 150 mM NaCl, 1 mM MgCl2, 50 µM EGTA; VP-ITC, single binding site fit, one replicate. A general note: In ITC the heat of successive injections is recorded.

In the case of “CaM12 (D20A, D56A; N lobe Ca^2+ binding disabled) (natural protein)”, the values for the Kd in assay [1], in assay [2] and in assay [3] were 156 nM, 154 nM and 3600 nM, respectively.

On to “calmodulin (full-length mammalian calmodulin, R. norvegicus CALM2) (from UniProt P0DP30 1-149) (natural protein)”, for which the Kd in assay [4] is 70 nM; in assay [5], 48 nM; in assay [3], 89 nM.

With “CaM34 (D93A, D129A; C lobe Ca^2+ binding disabled) (natural protein)”, the Kd in assay [1] worked out at 282 nM; in assay [2], 121 nM; in assay [3], 90 nM.

A word on the Kd: it is the concentration at which binding is half-saturated.
